# Substitutions are numbered along the chain they refer to.
# B1: antibody B9P4 (antibody, V domains shown)
# VH: EVQLVESGGGVVQPGRSLRLSCAASGFTFSSYGMHWVRQAPGKGLEWVAVISKDGSNKYEADFVKGRFTISRDNSKNTLYLQMNSLRAEDTAVYYCAKIPLRRYSDSGDYSSGDFWGQGTLVTVSS
# VL: DVVMTQSPLSLTVTLGQPASISCRSSENLVYSDGNTYLSWFQQRPGQSPRRLIYKVSTRDSGVPDRFSGSGSGTDFTLKISRVEAEDVGVYYCMQTTHWPPLTFGGGTKVEIK
# B2: antibody B8P7 (antibody, V domains shown)
# VH: QVQLQESGPGLVRPSETLSLTCTVSGGSISPYYWNWIRQPPGKGLEWIGYIYYSGNTKYNPSLKSRVTISVDTSKNQFSLKLSSVSAADTAVYYCARDSCSGTCYLGDNWFDPWGQGTLVTVSS
# VL: QSVLTQPPSVSGAPGQRVTISCTGSSSNIGANNDVHWYQHLPGTAPKLLIYGNNHRPSGVPDRFSGSKSGTSASLAITGLQAEDEADYYCQSYDSSLSTSKVFGGGTKLTVL
# B3: antibody C4P6 (antibody, V domains shown)
# VH: B2 VH with D108G
# VL: B2 VL
# B4: antibody G6P7 (antibody, V domains shown)
# VH: B2 VH
# VL: B2 VL with S9P
# B5: antibody E10P2 (antibody, V domains shown)
# VH: EVQLLESGGALVQPGGSLRLSCAASGFTFRSYAMNWVRQAPGKGLEWVSSLSSSGTTTYYADSVKGRFTISRDNSKNTMYLQMDSLRGEDTAVYYCAKDRNAQWLGSEPLDPWGQGTLVTVSS
# VL: EIVLTQSPGTLSLSPGERATLSCRASQSVSSSYLAWYQQKPGQAPRLLIYGASSRATGIPDRFSGSGSGTDFTLTISSLQPDDFAIYYCQQAYTFPWTFGQGTKLEIK
# B6: antibody E5P6 (antibody, V domains shown)
# VH: EVQLVESGGGVVQPGRSLRLSCAASGFIFNNHGMHWVRQAPGKGLEWVAGISYDGKKEYYIGSVKGRFTISRDNSRNTLYLHMNGLRPEDTAVYYCAKEAYGSGSPCDYWGQGTLVTVSS
# VL: EIVLTQSPGTLSLSPGERATLSCRASQRVSSNYLAWYQQKPGQAPRLLIYGASSRATGIPDRFSGSGSGTDFTLTISRLEPEDFAVYYCQQYGTSPRSFGRGTKLEIK
# B7: antibody C9P1 (antibody, V domains shown)
# VH: EVQLLESGGGLVQPGGSLRLSCVTSGFTFSSYSMTWVRQAPGKGLEWVSYISSSSRTISYADSVQGRFTISRDNAKNVLYLQMNSLRAEDTAVYYCARQAVAHFDYWGQGTLVTVSS
# VL: B6 VL with R101Q, L105V
# B8: antibody C11P1 (antibody, V domains shown)
# VH: QVQLQESGPGLVKPSETLSLTCTVSGGSIRNSYWSWIRQPPGKGLEWIGYIYYTGTTNSNPSLKSRATISVHMSQNQISLKLNSVTPADTAVYYCAQGGGSGDLHYWGQGTLVTVSS
# VL: NFMLTQPASVSGSPGQSITISCTGTRSDVGGYNYVSWYQQHPGKAPKLMIYDISSRPSGVSNRFSASKSGNTASLTISGLQAEDEADYYCISFATGYTWVFGGGTRLTVL
# B9: antibody B2P8 (antibody, V domains shown)
# VH: B8 VH with A67V
# VL: EIVLTQSPDTLSLSPGARATLSCRASQSVRSNYLAWYQQKPGQAPRLLIYGASSRATAIPDRFSGSGSGTDFTLTITRLEPEDFAVYYCHQYASSPRTFGQGTKVEIK
# B10: antibody E7P5 (antibody, V domains shown)
# VH: B8 VH with P40S, T56S, A67L, I69V
# VL: B8 VL with N1Q, F2S, M3A, M49I, R106S
# B11: antibody G5P1 (antibody, V domains shown)
# VH: B8 VH with E16G, A67V, Q75R
# VL: B8 VL
# B12: antibody C10P7 (antibody, V domains shown)
# VH: QVQLVQSGSEVKKPGTSVKVSCKASGETYVGHSISWVRQAPGAGLEWMGWISLHNGNVKYAQKLQGRVTMTTDTSTITAYMELRNLTSDDTAVYYCARVPMKIYGVIVFGEYYYDQLDVWGQGTTVTVSS
# VL: QSALTQPPSASGSPGQSVTISCTGTGSDVGGYNYVSWYQQHPGKAPKLMIYEVSKRPSGVPDRFSGSKSGNTASLTVSGLQAEDEADYYCSSYAGSKVVFGGGTKLTVL
# B13: antibody B5P4 (antibody, V domains shown)
# VH: QVQLVQSGAEVKKPGSSVKVSCKASGGRFSRYGSSWVRQAPGQGLEWMGGIIPLLGTANYAQKFQDRVSITADESTSTVYMHLSSLRSEDTAVYYCATARREYDRPGAEYFIQWGQGTLVTVSS
# VL: EIVMTQSPATLSVSPGERATLSCRASQSVSTNLAWYQQKPGQAPRLLIYDAFLRATGIPARFSGSGSGTEFTLTISSLQPEDFAVYYCQQYNYWPPLTFGGGTKVEIK
# B14: antibody E2P6 (antibody, V domains shown)
# VH: EVQLVESGGGLIQPGGSLRLSCAASGFTVSTNCMSWVRQAPGTGLEWVSVIYSGGTTYYADSVKGRFTISRDNSRNTLYLQMNGLRAEDTAVYYCARSVDTYDIYALDVWGQGTTVTVSS
# VL: DIQMTQSPSTLSASVGDRVTITCRASQSISRWLAWYQQKPGKAPKLLIYKASGLHSGAPSRFSGSGSGTEFTLTISGLQPDDFATYFCQQYNSYPWTFGQGTKVEIK
# B15: antibody G8P7 (antibody, V domains shown)
# VH: QLQLQESGPGLVQPSETLSLTCTVSGGYISTSSYYWGWIRQPPGKGLEWIGSIEYSGSTYYNPSLKSRVTISVDTSKNQFSLKLSSVTAADTAVYYCASANSKYYDSGGYYAPGALDLWGQGTMVTVSS
# VL: EIVMTQSPATLSVSPGERATLSCRASQSVSSHLAWYQHKRGQAPRLLIYAASSRATGIPARFSGRGSGTEFTLTISSLQSEDFAVYYCQQYNNWPPGYSFGQGTKLEIK
# Legend:
# [1] = molecular target: VP1 capsid protein on BKV pseudovirions of genotype Ia (BK-D; JF894228) (BK virus genotype Ia (BK-D)); assay: cell-based or functional assay
# [2] = molecular target: VP1 capsid protein on BKV pseudovirions of genotype II (GBR-12; AB263920) (BK virus genotype II (GBR-12)); assay: cell-based or functional assay
# [3] = molecular target: VP1 capsid protein on BKV pseudovirions of genotype IVc2 (A-66H; AB369093) (BK virus genotype IVc2 (A-66H)); assay: cell-based or functional assay
# [4] = molecular target: T1, VP1 pentamer of BKV genotype II (recombinant) (BK virus genotype II, UniProt P14996 30-300); assay: ELISA, coated VP1 pentamer
# T1 construct: also called GII; VP1 geno II pentamer; not shown: N-terminal His-tag of pESPRIT002; C-terminal biotin acceptor peptide (BAP) of pESPRIT002
# [5] = molecular target: T2, VP1 pentamer of BKV genotype IV (recombinant) (BK virus genotype IV, UniProt P14996 30-300); assay: ELISA, coated VP1 pentamer
# T2 construct: also called GIV; VP1 BKV subtype IV; not shown: N-terminal His-tag of pESPRIT002; C-terminal biotin acceptor peptide (BAP) of pESPRIT002
Binder,Neutralization PSV IC50 [1] [µg/mL],Neutralization PSV IC50 [2] [µg/mL],Neutralization PSV IC50 [3] [µg/mL],EC50 [4] [µg/mL],EC50 [5] [µg/mL],binding result [4],binding result [5]
B1,4.96,16.3,> 50,≥ 7,≥ 10,,
B2,0.0019,0.0004,0.164,0.04,3,,
B3,0.32,0.103,0.726,2.5,2.25,,
B4,0.0038,0.0041,0.883,0.2,2.5,,
B5,1.64,20.1,> 50,,,no binding (tested: starting at 50 µg/mL),no binding (tested: starting at 50 µg/mL)
B6,> 50,> 50,> 50,6,5,,
B7,> 50,> 50,> 50,,,no binding (tested: starting at 50 µg/mL),no binding (tested: starting at 50 µg/mL)
B8,0.351,0.0015,0.0942,0.045,0.22,,
B9,> 50,> 50,> 50,5,12,,
B10,0.0719,0.0002,0.0056,0.055,0.08,,
B11,0.538,0.0016,0.108,0.07,2.5,,
B12,6.56,11.2,> 50,8,18,,
B13,> 3.12,> 50,> 50,,,no binding (tested: starting at 50 µg/mL),no binding (tested: starting at 50 µg/mL)
B14,> 50,> 50,> 50,0.14,0.6,,
B15,> 50,21.3,> 50,25,5,,

# Reference: patent EP4659811A1 (Université de Strasbourg, dated 2025)
